From article PMC9278990 (Nature structural & molecular biology, 2021) come the findings set out here.

The test has as its target recombinant LDHA (human, UniProt P00338 1-332). Nature of the test: fluorescence polarisation. On the technique in general: Fluorescence polarisation rises when a labelled molecule tumbles more slowly, as on binding a larger partner.

No end group written: not given here.

As for AQRMNTAFTP (peptide, UniProt Q8NFG4 219-228, looked up, also: rhodamine B label (position not given here)) [FLCN-10 peptide (aa 219-228), rhodamine B-labeled], the binding result is “binds”.
